Assay results reported in the supplement of paper PMC10899765.

Key:
Conditions in all cases: 20 nM; 72 h
MCF10A [1] = assay: 5+ nucleoli phenotype percent effect (relative to siNT 0% and siKIF11 100%); higher = more cells with five or more nucleoli
Experimental: (§1)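 After 72 h, cells were fixed and stained with Hoechst and anti-fibrillarin, and nucleoli per nucleus were counted with CellProfiler. Values are plate-adjusted percent effect for the one-nucleolus and 5+ nucleoli phenotypes, normalised to siNT (0%) and to the positive controls siNOL11 or siKIF11 (100%), as the mean of biological triplicates. Percent viability is the nuclei count relative to siNT.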

MCF10A [2] = assay: percent viability (nuclei count relative to siNT); higher = more viable cells
Experimental: as §1

MCF10A [3] = assay: 5+ nucleoli phenotype percent effect, hitpick validation (relative to siNT 0% and siKIF11 100%); higher = more cells with five or more nucleoli
Experimental: (§2)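 Primary screen hits (microRNA mimics) were re-picked and rescreened for nucleolar number in MCF10A cells (hitpick validation; percent effect relative to the siNT and siNOL11/siKIF11 controls). A secondary screen measured nucleolar rRNA biogenesis inhibition: after 72 h of transfection at 20 nM, cells were labelled 1 h with 1 mM 5-EU and nucleolar 5-EU signal was quantified, normalised to siNT (0%) and siPOLR1A (100%). Means are over n=5 (MCF10A) or n=2 (RPE-1, HeLa) biological replicates.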

MCF10A [4] = assay: one-nucleolus phenotype percent effect, hitpick validation (relative to siNT 0% and siNOL11 100%); higher = more cells with one nucleolus
Experimental: as §2

MCF10A [5] = assay: nucleolar rRNA biogenesis percent inhibition (5-EU; siNT 0%, siPOLR1A 100%); higher = stronger inhibition of nucleolar rRNA biogenesis
Experimental: as §2

MCF10A [6] = assay: one-nucleolus phenotype percent effect (relative to siNT 0% and siNOL11 100%); higher = more cells with one nucleolus (ribosome biogenesis inhibition)
Experimental: as §1

Sequence | 5+ nucleoli phenotype percent effect (MCF10A [1]) [%] | percent viability (MCF10A [2]) [%] | 5+ nucleoli phenotype percent effect (MCF10A [3]) [%] | one-nucleolus phenotype percent effect (MCF10A [4]) [%] | nucleolar rRNA biogenesis percent inhibition (MCF10A [5]) [%] | one-nucleolus phenotype percent effect (MCF10A [6]) [%]
CAAUGGCACAAACUCAUUCUUGA [hsa-miR-5197-5p] | -38.9 | 22.7 | 20.5 | 65.4 | 16.5 | 71
CAAAGGUAUUUGUGGUUUUUG [hsa-miR-548m] | -40.8 | 39.4 | -10.9 | 130 | 4.11 | 68.6
CCCCACCUCCUCUCUCCUCAG [hsa-miR-1224-3p] | 97.2 | 86.7 | 28.1 | -32.5 | 22.4 | -25.7
UGGAGUCCAGGAAUCUGCAUUUU [hsa-miR-1289] | -51.8 | 20 | -9.57 | 130 | 68.1 | 78.3
UCUCCCUUGAGGGCACUUU [hsa-miR-4287] | 200 | 66 | 70 | -44.9 | 82.1 | -43.1
CUCUCCCUCUUUACCCACUAG [hsa-miR-6867-3p] | 133 | 61.8 | 49.1 | -40.4 | 71.1 | -35
AGGUAUUGCCACCCUUUCUAGU [hsa-miR-5681b] | -35.5 | 12.7 | -3.11 | 133 | 66 | 90.7
AGAGCAGAAGGAUGAGAU [hsa-miR-4468] | -43.6 | 16.5 | -14.8 | 109 | 102 | 66.8
ACUGGGCUUGGAGUCAGAAG [hsa-miR-378g] | -34.6 | 16.8 | -9.08 | 159 | 57.9 | 91.2
AGGAGCUAUCCACUCCAGGUGUCC [hsa-miR-6500-5p] | -33 | 19.2 | 5.46 | 153 | 61.3 | 70.9
UUUGCAGUAACAGGUGUGAGCA [hsa-miR-6516-5p] | -40.6 | 23.8 | -19.1 | 142 | 48.6 | 80.3
UAGGAGCUCAACAGAUGCCUGUU [hsa-miR-3139] | -23.5 | 18.8 | -8.78 | 181 | 5.86 | 84.1
UUCUCCCACUACCAGGCUCCCA [hsa-miR-4713-5p] | 95.9 | 32.9 | 43 | -22.9 | 82.4 | -12.1
AAAGGCAUAAAACCAAGACA [hsa-miR-3910] | -39.2 | 11.9 | -8.76 | 167 | 12.7 | 97
GGCUGGGUGCUCUUGUGCAGU [hsa-miR-5589-5p] | -4.52 | 17.4 | 21.5 | 92.2 | 70 | 71
GGCUCCUCCUCUCAGGAUGUG [hsa-miR-4268] | 82.4 | 41.5 | 51.9 | -21.2 | 133 | -15.6
UUGCACUUGUCUCAGUGA [hsa-miR-4325] | -30.4 | 15.7 | 3.45 | 84.2 | 104 | 70.8
UCUGCAGGGUUUGCUUUGAG [hsa-miR-1205] | -53.7 | 20.5 | -13.7 | 166 | 15.8 | 96.8
AAAAGGCGGGAGAAGCCCCA [hsa-miR-4484] | -51.6 | 12 | -14.7 | 199 | 69.6 | 92.8
CUGGCGGAGCCCAUUCCAUGCCA [hsa-miR-4730] | -43.2 | 18.2 | -12.7 | 230 | 91.1 | 118

Sequence | 5+ nucleoli phenotype percent effect (MCF10A [1]) [%] | percent viability (MCF10A [2]) [%] | 5+ nucleoli phenotype percent effect (MCF10A [3]) [%] | one-nucleolus phenotype percent effect (MCF10A [4]) [%] | nucleolar rRNA biogenesis percent inhibition (MCF10A [5]) [%] | one-nucleolus phenotype percent effect (MCF10A [6]) [%]
CUGGCGGCUGUGUCUUCACAG [hsa-miR-6770-3p] | -40.2 | 18.4 | 1.2 | -1.66 | -8.82 | 110
CCGUCGCCGCCACCCGAGCCG [hsa-miR-1181] | 96.7 | 128 | 40.2 | -55.6 | 86.9 | -33.1
UCAUAGCCCUGUACAAUGCUGCU [hsa-miR-103b] | -32.5 | 46.2 | -15 | 144 | 47.6 | 72.9
GGCGACAAAACGAGACCCUGUC [hsa-miR-1273c] | -32.6 | 17.4 | -8.2 | 205 | 31.6 | 106
GAGGGCGGGUGGAGGAGGA [hsa-miR-3141] | -29.5 | 20.1 | -4.23 | 129 | 51.1 | 72.7
AAAAGGCAUUGUGGUUUUUG [hsa-miR-548an] | -52.6 | 11.6 | -8.86 | 194 | 65.7 | 137
AGUGUGGCUUUCUUAGAGC [hsa-miR-644a] | -48.4 | 35 | -13.1 | 170 | 101 | 93.5
AGAAAGGGUGGCAAUACCUCUU [hsa-miR-5681a] | -33.1 | 8.23 | -15.4 | 165 | 76.4 | 114
ACUGGGGAGCAGAAGGAGAACC [hsa-miR-4667-5p] | -15.5 | 9.07 | 9.27 | 107 | 81.2 | 67.8
GUGUGUGGAAAUGCUUCUGC [hsa-miR-147a] | -15.3 | 18.3 | 9.08 | 103 | 61.8 | 95.9
AGAUGUAUGGAAUCUGUAUAUAUC [hsa-miR-3171] | 13.6 | 91.9 |  |  |  | -12.5
CAACCUCGACGAUCUCCUCAGC [hsa-miR-3150a-5p] | 22.1 | 171 |  |  |  | -25.7
CAGGGCUCAGGGAUUGGAUGGAG [hsa-miR-5088] | 20.4 | 77.7 |  |  |  | -7.65
GAAGCUCUCCCCUCCCCGCAG [hsa-miR-6796-3p] | 5.79 | 103 |  |  |  | -14.7
AGCUGUACCUGAAACCAAGCA [hsa-miR-4718] | -2.07 | 77.5 |  |  |  | 9.98
UCUGCACUGUGAGUUGGCUGGCU [hsa-miR-4793-3p] | -3.16 | 44.7 |  |  |  | 10.7
UGAGCCGAGCUGAGCUUAGCUG [hsa-miR-4537] | -4.47 | 73.5 |  |  |  | -6.98
AGGGCCGAAGGGUGGAAGCUGC [hsa-miR-6877-5p] | -6.96 | 41.7 |  |  |  | 10.5
CAGCCCGGAUCCCAGCCCACUU [hsa-miR-3940-3p] | -8.21 | 33.5 |  |  |  | 2.08
CAAAAAUCUCAAUUACUUUUGC [hsa-miR-548c-3p] | 42.3 | 84.4 |  |  |  | -9.26

Sequence | 5+ nucleoli phenotype percent effect (MCF10A [1]) [%] | percent viability (MCF10A [2]) [%] | 5+ nucleoli phenotype percent effect (MCF10A [3]) [%] | one-nucleolus phenotype percent effect (MCF10A [4]) [%] | nucleolar rRNA biogenesis percent inhibition (MCF10A [5]) [%] | one-nucleolus phenotype percent effect (MCF10A [6]) [%]
GAAGGCGCUUCCCUUUGGAGU [hsa-miR-524-3p] | -9.32 | 70.4 |  |  |  | 35.1
CCUCUGAAAUUCAGUUCUUCAG [hsa-miR-146a-3p] | 27.1 | 125 |  |  |  | -13.5
UGAGGGGCCUCAGACCGAGCUUUU [hsa-miR-3184-5p] | 38.7 | 31.2 |  |  |  | 5.35
CUCCCCGGCCUCUGCCCCCAG [hsa-miR-6763-3p] | 39.1 | 96.4 |  |  |  | -28.1
UUGGGGGUGAGGUUGGUGUCUGG [hsa-miR-6751-5p] | -13.1 | 7.37 |  |  |  | 13.4
UAGGUGGCGCCGGAGGAGUCAUU [hsa-miR-6815-5p] | -6.84 | 13.2 |  |  |  | 20.3
AUGGUUCCGUCAAGCACCAUGG [hsa-miR-218-1-3p] | 4.75 | 51 |  |  |  | 11.8
UAAAACUGCAGUUAUUUUUGC [hsa-miR-548ar-3p] | 38.3 | 122 |  |  |  | -24.2
AGGCUGCGGAAUUCAGGAC [hsa-miR-604] | -15.7 | 25.6 |  |  |  | 29.2
UAGGACACAUGGUCUACUUCU [hsa-miR-1197] | -9.77 | 61.7 |  |  |  | 7.44
AAGGCCUUUCUGAACCUUCAGA [hsa-miR-3142] | -15 | 23.2 |  |  |  | 19.5
UGGUUUACCGUCCCACAUACAU [hsa-miR-299-5p] | -19.4 | 27.9 |  |  |  | 24.1
CAGCCCUCCUCCCGCACCCAAA [hsa-miR-4687-5p] | -6.45 | 80.6 |  |  |  | -10.4
AAUUCCCUUGUAGAUAACCCGG [hsa-miR-3938] | 51.2 | 129 |  |  |  | -32
GUUUUACCACCUCCAGGAGACU [hsa-miR-2681-5p] | 3.14 | 36 |  |  |  | -33.4
AGCCCCCUGGCCCCAAACCC [hsa-miR-4313] | 6.68 | 38.7 |  |  |  | -4.86
ACAGGCACGACUGGUUUGGCA [hsa-miR-6715b-5p] | -27.8 | 14.8 |  |  |  | 54.7
CCCUGAGACCCUAACCUUAA [hsa-miR-4324] | 38.6 | 84 |  |  |  | -27
CCUAAUUUGAACACCUUCGGUA [hsa-miR-4735-5p] | 8.71 | 80.8 |  |  |  | -11.3
AGAGGACCCGUAGCUGCUAGAAGG [hsa-miR-4751] | 41.7 | 106 |  |  |  | -23.3
